Test results published in US20060264615A1 (MAXYGEN, published 2006).

T1: modified p35 polypeptide R2-571 with C-terminal EHtag
T1 construct: Recombinant (shuffled) p35 variant with the EHtag fused to its C-terminus; also called R2-571-EHtag
T1 chain: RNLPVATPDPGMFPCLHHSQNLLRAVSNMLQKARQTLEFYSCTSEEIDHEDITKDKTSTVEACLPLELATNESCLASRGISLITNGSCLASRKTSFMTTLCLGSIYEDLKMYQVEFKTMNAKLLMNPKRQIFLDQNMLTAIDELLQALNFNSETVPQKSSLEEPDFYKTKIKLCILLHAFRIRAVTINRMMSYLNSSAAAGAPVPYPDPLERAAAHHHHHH

T2: wild-type human p40 polypeptide (human, UniProt P29460 23-328)
T2 construct: Secreted from COS-7 or 293 cells co-transfected with a p35 nucleic acid; also called wt-p40
T2 sequence: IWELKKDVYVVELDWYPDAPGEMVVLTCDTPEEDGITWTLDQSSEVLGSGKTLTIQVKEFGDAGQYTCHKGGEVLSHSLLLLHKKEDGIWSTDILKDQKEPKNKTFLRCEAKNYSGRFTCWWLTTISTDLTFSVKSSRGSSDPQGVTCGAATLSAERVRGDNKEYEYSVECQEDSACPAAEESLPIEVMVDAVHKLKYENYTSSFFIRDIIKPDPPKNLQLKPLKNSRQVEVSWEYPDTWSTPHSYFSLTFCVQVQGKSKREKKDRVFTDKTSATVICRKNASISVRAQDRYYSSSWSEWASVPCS

B1: wild-type human p35 polypeptide (ligand)
chain: RNLPVATPDPGMFPCLHHSQNLLRAVSNMLQKARQTLEFYPCTSEEIDHEDITKDKTSTVEACLPLELTKNESCLNSRETSFITNGSCLASRKTSFMMALCLSSIYEDLKMYQVEFKTMNAKLLMDPKRQIFLDQNMLAVIDELMQALNFNSETVPQKSSLEEPDFYKTKIKLCILLHAFRIRAVTIDRVTSYLNAS
notes: Secreted from COS-7 or 293 cells co-transfected with a p40 nucleic acid; also called wt-p35

Experiments:
[1] = biological target: B1; assay: immunoblot with anti-p35 mAB of COS-7 culture medium; ~70 kDa p40/p35 heterodimer band (FIG. 7)
[2] = biological target: T1, modified p35 polypeptide R2-571 with …; assay: Western blot with anti-E tag mAB of heterodimer purified on an anti-E affinity column through the p35 EHtag (FIG. 14)
Source text: (§1) Co-expressing in mammalian cells a modified p40 nucleic acid of the invention plus a modified p35 nucleic acid of the invention produces a substantially more homogenous heterodimeric protein than the heterodimeric protein produced by co-expressing a wt-p40 nucleic acid and a wt-p35 nucleic acid. […] Both the modified p35 nucleic acid and the wt-p35 nucleic acid also comprised a C-terminal EHtag coding sequence.

[3] = biological target: T2, wild-type human p40 polypeptide; assay: as above
Source text: as §1

[4] = biological target: T2, wild-type human p40 polypeptide; assay: immunoblot with anti-p35 mAB of COS-7 culture medium; ~70 kDa p40/p35 heterodimer band, control (FIG. 7)

| binding result [1] | also measured | Binder |
| --- | --- | --- |
| binds |  | modified p40 polypeptide A16-94 (ligand) IWELKKDVYVVELDWYPDAPGEMVVLACDTPEEDGITWTSDQSSEVLGTGKTLTIHVKEFGDAGQYTCHKGGTVLSQSLLLLHKKEDGIWSTDILKDQKEPKNKSFLKCEAKNYSGRFTCWWLTAISTDLKFTVKSSRGSTDPRGVTCGTATLSEDLGEYKKYRVECQEGSACPAAEESLPIEVVLEAVHKLKYENYTSSFFIRDIIKPDPPKNLQLRPLKNSRHVEVSWEYPDTWSAPHSYFSLTFGVQVQGRNKREDRLFMDQTSAKVVCHKDAKIRVQARDRYYSSSWSEWASVSLQSV |
| binds | binding result [2]: binds | modified p40 polypeptide C2-22 (ligand, Recombinant (shuffled) p40 variant; the mature region is stated as residues 23-324; also called p40C2-22) IWELKKDVYVVELDWYPNAPGETVVLTCDTPEEDGITWTSDQSSEVLGTGKTLTIHVKEFGDAGQYTCRKGGEALSRSLLLLHKKEDGIWSTDILKDQKEPKNKSFLKCEAKNYSGRFTCWWLTTISTDLKFSVKSSRGSTDPRGVTCGTATLSEDLGEYKKYRVECQEGSACPAAEESLPIEVVLEAVHKLKYENYTSSFFIRDIIKPDPPKNLQLKPLKNSRHVEVSWGYPDTWSTPHSYFSLTFCIQVQGKSKREKKDRIFTDKTSATVICRKNAKIRVQARDRYYSSFWSEWASVSCS |
|  | binding result [3]: binds | wild-type human p35 polypeptide with C-terminal EHtag (ligand, wt-p35 with the EHtag fused to its C-terminus; also called wt-p35-EHtag) RNLPVATPDPGMFPCLHHSQNLLRAVSNMLQKARQTLEFYPCTSEEIDHEDITKDKTSTVEACLPLELTKNESCLNSRETSFITNGSCLASRKTSFMMALCLSSIYEDLKMYQVEFKTMNAKLLMDPKRQIFLDQNMLAVIDELMQALNFNSETVPQKSSLEEPDFYKTKIKLCILLHAFRIRAVTIDRVTSYLNASAAAGAPVPYPDPLERAAAHHHHHH |
| binds |  | modified p40 polypeptide A3-48 (ligand) IWELEKNVYVVELDWYPDAPGEMVVLACDTPEEDGITWTSDQSSEVLGTGKTLTIHVKEFGDAGQYTCHKGGKVLSRSLLLLHKKEDGIWSTDILKDQKEPKNKSFLKCEAKNYSGRFTCWWLTTISTDLTFSVKSSRGSTDPHGVTCGTATLSEDLGEYKKYRVECQEGSACPAAEESLPIEVVLEAVHKLKYENYTSSFFIRDIIKPDPPKNLQLRPLKNSRQVEVNWEYPDTWSTPHSYFSLTFCVQVQGRNKREKKLFMDQTSAKVTCHKDAKIRVQARDRYYSSSWSDWASVSCG |
| binds |  | modified p40 polypeptide B1-81 (ligand) IWELEKNVYVVELDWYPDAPGETVVLACDTPEEDGITWTSDQSSEVLGTGKTLTIHVKEFGDAGQYTCRKGGAVLSQSLLLLHKKEDGIWSTDILKDQKKPKNKIFLKCEAKNYSGRFTCWWLTAISTDLKFTVKSSRGSSDPQGVTCGAVTLSAERVSMDHREYNKYTVECQEGSACPSAEESLPIEVVVDAIHKLKYENYTSRFFIRDIIKPDPPKNLQLRPLKNSRHVEISWEYPDTWSTPHSYFSLTFCVQVQGKNKREKKLFMDQTSAKVTCHKDAKIRVQARDRYHSSSWSEWASVPCS |
| binds |  | modified p40 polypeptide B2-52 (ligand) IWELEKNVYVVELDWYPDAPGEMVVLACDTPEEDGITWTSDQSSGVLGTGKTLTIHVKEFGDAGQYTCRKGGAVLSQSLLLLHKKEDGIWSTDILKDQKEPKAKSFLKCEAKDYSGHFTCWWLTTISTDLKFSVKSSRGSSDPQGVTCGAVTLSAERVSMDHREYNKYTVECQEGSACPSAEESLPIEVVVDAIHKLKYENYTSSFFIRDIIKPDPPKNLQLRPLKNSRQVEVNWEYPDTWSTPHSYFSLTFCVQVQGKNKREKKLFMDQTSAKVTCHKDAKIRVQARDRYYSSSWSEWASVPCS |
| binds |  | modified p40 polypeptide B8-96 (ligand) IWELEKNVYVVELDWYPDAPGEMVVLACDTPEEDGITWTSDQSSEVLGTGKTLTIHVKEFGDAGQYTCRKGGAVLSQSLLLLHKKEDGIWSTDILKDQKEPKNKSFLKCEAKNYSGRFTCWWLTTISTDLKFSVKSSRGSSDPRGVTCGAALLSAEKVSLEHREYKKYRVECQEGSACPAAEESLPIEVVLEAVHKLKYENYTSSFFIRDIIKPDPPKNLQLRPLKNSRQVEVNWEYPDTWSTPHSYFSLTFCVQVQGKNKREKKLFMDQTSAKVTCHKDAKIRVQARDRYYSSSWSEWASVPCS |
|  | binding result [4]: binds | B1 |
